Publication PMC10914600, “Synthesis of lipid-linked precursors of the bacterial cell wall is governed by a feedback control mechanism in Pseudomonas aeruginosa” (Nature Microbiology, 2024)

Target: the molecule itself
Test: cryo-EM structure; YES(T23P) complex (EcMraY(T23P), protein E, SlyD) co-expressed and purified in DDM; 5 mg/ml in 10 mM HEPES pH 7.5, 75 mM NaCl, 2% glycerol, 5 mM βME, 0.03% DDM, 1 mM E. coli total lipid extract; focused refinement of MraY alone after particle subtraction, final map 3.8 Å

B1: E. coli MraY(T23P) (enzyme)
chain: MLVWLAEHLVKYYSGFNVFSYLPFRAIVSLLTALFISLWMGPRMIAHLQKLSFGQVVRNDGPESHFSKRGTPTMGGIMILTAIVISVLLWAYPSNPYVWCVLVVLVGYGVIGFVDDYRKVVRKDTKGLIARWKYFWMSVIALGVAFALYLAGKDTPATQLVVPFFKDVMPQLGLFYILLAYFVIVGTGNAVNLTDGLDGLAIMPTVFVAGGFALVAWATGNMNFASYLHIPYLRHAGELVIVCTAIVGAGLGFLWFNTYPAQVFMGDVGSLALGGALGIIAVLLRQEFLLVIMGGVFVVETLSVILQVGSFKLRGQRIFRMAPIHHHYELKGWPEPRVIVRFWIISLMLVLIGLATLKVR
notes: MraY of E. coli, integral membrane enzyme that forms lipid I; The methods name the plasmid pRSFDuetEcMraY-E_(ID21) without the T23P change; also called ^EcMraY(T23P); MraY of the YES(T23P) complex; source: E. coli ∆slyD BL21(DE3), co-expressed with protein E and SlyD, purified as the YES complex (DDM, NiNTA, SEC)
Question: Which “stoichiometry N” value does the source give for B1 here?
Answer: 2
